Reference: patent US11155586B2, “Cystine knot scaffold platform” (Genentech, Inc., priority 2015, dated 2021)
Positions of bridges follow the written chain, without caps; N, C: chain ends. Non-standard residues stand in square brackets, D forms with d. Residues, ends and D or L forms follow the SMILES beside them. PEG6 = NCCOCCOCCOCCOCCOCCOCCC(=O)O; Pra = C#CC[C@H](N)C(=O)O

Legend:
[1] = biological target: T1, hVEGF-A (8-109) (Homo sapiens, UniProt P15692); experiment: SPR binding assay (BIACORE 3000, 37° C.); conditions: Table 37, surface plasmon resonance, VEGF-A
T1 sequence (P15692 34-135 isoform P15692-4): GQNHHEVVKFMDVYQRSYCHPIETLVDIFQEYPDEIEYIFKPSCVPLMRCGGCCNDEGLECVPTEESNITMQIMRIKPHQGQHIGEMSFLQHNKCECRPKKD
Method: Depending on the format of the assay either a streptavidin sensor (SA) or a dextran-coated (CM5) sensor was utilized as described below.
For use with the SA sensor, VEGF-A was first biotinylated (no more than 2 biotin/VEGF-A) by incubating the protein with EZ-link NHS-PEG4-Biotin (Pierce) in a 1:1.5 molar ratio respectively, in PBS for 2 hours on ice. Reaction was then quenched by addition of 10 molar excess of Glycine pH 8.0 and the sample was buffer exchanged into PBS using an Amicon 0.5 mL 3000 MWCO ultra-centrifugal filters (EMD Millipore). The biotinylation state of the protein was verified by LC-MS analysis. Biotinylated VEGF-A was then captured on the surface until a resonance unit (RU) signal of about ˜400. For immobilization of VEGF-A on CM5 sensor, the surface was first activated with a mixture of N-ethyl-N′-(3-dimethylaminopropyl)carbodiimide hydrochloride and N-hydroxysuccinimide (EDC/NHS) according to the supplier instructions. VEGF-A was then diluted into coupling buffer (0.1 M Acetate Buffer, pH 5.0) and injected until the signal reached about ˜400 RU followed by a wash with 1 M ethanolamine pH 8.0 to quench remaining activated sites.
Following the capture step, a series of the peptide concentrations were prepared in HBS-EP buffer with matching DMSO concentrations to 0.1% and injected at a flow rate of […]. The resulting sensorgrams were then analyzed using a 1:1 binding model to obtain kinetic data and affinities using Scrubber 2.0 (BioLogic Software).

[2] = biological target: T2, hVEGF(8-109) (Homo sapiens, UniProt P15692); experiment: Spot phage ELISA; assay type: binding
T2 construct: hVEGF(8-109) or BSA were coated on 384-well MAXISORP™ immunoplates
T2 sequence (P15692 214-315): T1 sequence (P15692 34-135 isoform P15692-4)
Method: After four rounds of binding selection, individual phage clones were picked and inoculated into 450 μl 2YT media containing 50 µg/ml Carbenecillin and M13-KO7 helper phage in 96-well blocks, which were grown at 37° C. overnight. The supernatant was analyzed with spot phage ELISA as follows: hVEGF(8-109) or BSA were coated on 384-well MAXISORP™ immunoplates and phage supernatant diluted (1:3) with PBT buffer was added to the wells. The plates were washed and bound phage was detected with anti-M13-HRP followed by TMB substrate. In these assays, phage binding to BSA alone was tested in parallel to assess background binding. Clones whose binding signals for hVEGF-A (8-109) were more than 3 times higher than to BSA (background) were considered positive. Positive clones were subjected to DNA sequence analysis.

[3] = spot phage ELISA signal, EETI-II-based binders against hVEGF-A, Table 19
[4] = loop 2 variants based on VEGF_CKP9.63 framework, Table 27
[5] = loop 2 variants based on 9.54 framework, Table 26

Molecule	S/N (signal to noise ratio as compared to BSA control) ([2]; Table 27)	ELISA [2, 4]	other results
C#CC[C@H](N)C(=O)NCCOCCOCCOCCOCCOCCOCCC(=O)N[C@H]1CSSC[C@@H](C(=O)N[C@H](C(=O)N[C@H]2CSSC[C@@H](C(=O)NCC(=O)O)NC(=O)[C@H](CO)NC(=O)[C@H](CCC(N)=O)NC(=O)[C@H](Cc3ccc(O)cc3)NC(=O)[C@H](Cc3ccc(O)cc3)NC(=O)[C@H](CCC(N)=O)NC2=O)C(C)C)NC(=O)CNC(=O)[C@H](C)NC(=O)[C@H](CC(C)C)NC(=O)[C@@H]2CSSC[C@H](NC(=O)CNC(=O)[C@H](Cc3c[nH]c4ccccc34)NC(=O)[C@H](Cc3ccccc3)NC(=O)[C@@H]3CCCN3C(=O)[C@H](CC(C)C)NC(=O)[C@H](CCSC)NC(=O)[C@H]([C@@H](C)CC)NC(=O)[C@H](CC(N)=O)NC1=O)C(=O)NCC(=O)N[C@@H](CCCNC(=N)N)C(=O)N[C@@H](CC(=O)O)C(=O)N[C@@H](Cc1ccccc1)C(=O)N[C@@H](CCC(=O)O)C(=O)N2 [VEGF_CKP9.54.90-Alkyn] (H-[Pra][PEG6]CNIMLPFWGCGRDFECLAGCVCQYYQSCG-OH; disulfide 3-22, 12-18, 24-30; N-terminus and C-terminus assumed)	–	–	kd [1]: 0.27
CC[C@H](C)[C@@H]1NC(=O)[C@H](CCC(=O)O)NC(=O)[C@H](Cc2c[nH]cn2)NC(=O)[C@@H]2CCCN2C(=O)[C@@H]2CCCN2C(=O)[C@H](Cc2c[nH]c3ccccc23)NC(=O)[C@@H]2CCCN2C(=O)[C@H]([C@@H](C)O)NC(=O)[C@H]([C@@H](C)O)NC(=O)[C@@H](NC(=O)CN)CSSC[C@@H]2NC(=O)CNC(=O)[C@H](C)NC(=O)[C@H](CC(C)C)NC(=O)[C@@H]3CSSC[C@@H](C(=O)NCC(=O)O)NC(=O)[C@H](Cc4ccccc4)NC(=O)CNC(=O)[C@H](CC(N)=O)NC(=O)[C@@H]4CCCN4C(=O)CNC(=O)[C@H](CSSC[C@H](NC(=O)[C@H](CCSC)NC1=O)C(=O)N[C@@H](CCCCN)C(=O)N[C@@H](CCC(N)=O)C(=O)N[C@@H](CC(=O)O)C(=O)N[C@@H](CO)C(=O)N[C@@H](CC(=O)O)C(=O)N3)NC(=O)[C@H](C(C)C)NC2=O [VEGF_CKP12] (H-GCTTPWPPHEIMCKQDSDCLAGCVCGPNGFCG-OH; disulfide 2-23, 13-25, 19-31; N-terminus and C-terminus assumed)	–	–	S/N (signal to noise ratio as compared to BSA control) ([2]; Table 19): 55.2; ELISA [2, 3]: 3.5
GCDVMQPYWGCGRDLQCLAGCVCHWYNSCG [VEGF_CKP9.63.2]	15.0	2.0	–
GCDVMQPYWGCGLDEECLAGCVCHWYNSCG [VEGF_CKP9.63.37]	8.6	0.6	–
GCDVMQPYWGCAGDELCLAGCVCHWYNSCG [VEGF_CKP9.63.30]	26.0	2.0	–
GCDVMQPYWGCGQDYNCLAGCVCHWYNSCG [VEGF_CKP9.63.56]	8.4	1.8	–
CC[C@H](C)[C@@H]1NC(=O)[C@H](CCC(N)=O)NC(=O)[C@@H](NC(=O)CN)CSSC[C@@H](C(=O)N[C@H](C(=O)N[C@H]2CSSC[C@@H](C(=O)NCC(=O)O)NC(=O)[C@H](CO)NC(=O)[C@H](CC(N)=O)NC(=O)[C@H](Cc3ccc(O)cc3)NC(=O)[C@H](Cc3ccccc3)NC(=O)[C@H](Cc3c[nH]cn3)NC2=O)C(C)C)NC(=O)CNC(=O)[C@H](C)NC(=O)[C@H](CC(C)C)NC(=O)[C@@H]2CSSC[C@H](NC(=O)CNC(=O)[C@H](Cc3c[nH]c4ccccc34)NC(=O)[C@H](Cc3ccccc3)NC(=O)[C@@H]3CCCN3C(=O)[C@H](CCC(N)=O)NC(=O)[C@H](CO)NC1=O)C(=O)N[C@@H](CCCCN)C(=O)N[C@@H](CCC(N)=O)C(=O)N[C@@H](CC(=O)O)C(=O)N[C@@H](CO)C(=O)N[C@@H](CC(=O)O)C(=O)N2 [VEGF_CKP9.3] (H-GCQISQPFWGCKQDSDCLAGCVCHFYNSCG-OH; disulfide 2-21, 11-17, 23-29 (inferred); N-terminus and C-terminus assumed)	–	–	S/N (signal to noise ratio as compared to BSA control) ([2]; Table 24): 24.5; ELISA ([2]; VEGF_CKP9 Loop1/Loop5 affinity-matured variants, Table 24): 1.6
CC[C@H](C)[C@@H]1NC(=O)[C@H](Cc2c[nH]c3ccccc23)NC(=O)[C@H](Cc2c[nH]cn2)NC(=O)[C@@H]2CCCN2C(=O)[C@H](CCCCN)NC(=O)[C@H](Cc2c[nH]c3ccccc23)NC(=O)[C@@H]2CCCN2C(=O)[C@H]([C@@H](C)O)NC(=O)[C@H](C(C)C)NC(=O)[C@@H](NC(=O)CN)CSSC[C@@H]2NC(=O)CNC(=O)[C@H](C)NC(=O)[C@H](CC(C)C)NC(=O)[C@@H]3CSSC[C@@H](C(=O)NCC(=O)O)NC(=O)[C@H](Cc4ccccc4)NC(=O)CNC(=O)[C@H](CC(N)=O)NC(=O)[C@@H]4CCCN4C(=O)CNC(=O)[C@H](CSSC[C@H](NC(=O)[C@H](CC(N)=O)NC1=O)C(=O)N[C@@H](CCCCN)C(=O)N[C@@H](CCC(N)=O)C(=O)N[C@@H](CC(=O)O)C(=O)N[C@@H](CO)C(=O)N[C@@H](CC(=O)O)C(=O)N3)NC(=O)[C@H](C(C)C)NC2=O [VEGF_CKP13] (H-GCVTPWKPHWINCKQDSDCLAGCVCGPNGFCG-OH; disulfide 2-23, 13-25, 19-31; N-terminus and C-terminus assumed)	–	–	S/N (signal to noise ratio as compared to BSA control) ([2]; Table 19): 56.3; ELISA [2, 3]: 3.5
CC[C@H](C)[C@@H]1NC(=O)[C@H](CC(N)=O)NC(=O)[C@@H](NC(=O)CN)CSSC[C@@H](C(=O)N[C@H](C(=O)N[C@H]2CSSC[C@@H](C(=O)NCC(=O)O)NC(=O)[C@H](CO)NC(=O)[C@H](CCC(N)=O)NC(=O)[C@H](Cc3ccc(O)cc3)NC(=O)[C@H](Cc3ccc(O)cc3)NC(=O)[C@H](CCC(N)=O)NC2=O)C(C)C)NC(=O)CNC(=O)[C@H](C)NC(=O)[C@H](CC(C)C)NC(=O)[C@@H]2CSSC[C@H](NC(=O)CNC(=O)[C@H](Cc3c[nH]c4ccccc34)NC(=O)[C@H](Cc3ccccc3)NC(=O)[C@@H]3CCCN3C(=O)[C@H](CC(C)C)NC(=O)[C@H](CCSC)NC1=O)C(=O)NCC(=O)N1CCC[C@H]1C(=O)N[C@@H](CC(=O)O)C(=O)N[C@@H](CC(C)C)C(=O)N[C@@H](CCC(N)=O)C(=O)N2 [VEGF_CKP9.54.59] (H-GCNIMLPFWGCGPDLQCLAGCVCQYYQSCG-OH; disulfide 2-21, 11-17, 23-29; N-terminus and C-terminus assumed)	–	–	S/N (signal to noise ratio as compared to BSA control) ([2]; Table 26): 35.4; ELISA [2, 5]: 2.3
CC[C@H](C)[C@@H]1NC(=O)[C@H](CC(N)=O)NC(=O)[C@@H](NC(=O)CN)CSSC[C@@H](C(=O)N[C@H](C(=O)N[C@H]2CSSC[C@@H](C(=O)NCC(=O)O)NC(=O)[C@H](CO)NC(=O)[C@H](CCC(N)=O)NC(=O)[C@H](Cc3ccc(O)cc3)NC(=O)[C@H](Cc3ccc(O)cc3)NC(=O)[C@H](CCC(N)=O)NC2=O)C(C)C)NC(=O)CNC(=O)[C@H](C)NC(=O)[C@H](CC(C)C)NC(=O)[C@@H]2CSSC[C@H](NC(=O)CNC(=O)[C@H](Cc3c[nH]c4ccccc34)NC(=O)[C@H](Cc3ccccc3)NC(=O)[C@@H]3CCCN3C(=O)[C@H](CC(C)C)NC(=O)[C@H](CCSC)NC1=O)C(=O)NCC(=O)N[C@@H](CC(C)C)C(=O)N[C@@H](CC(=O)O)C(=O)N[C@@H](Cc1ccc(O)cc1)C(=O)N[C@@H](CC(=O)O)C(=O)N2 [VEGF_CKP9.54.2] (H-GCNIMLPFWGCGLDYDCLAGCVCQYYQSCG-OH; disulfide 2-21, 11-17, 23-29; N-terminus and C-terminus assumed)	–	–	S/N (signal to noise ratio as compared to BSA control) ([2]; Table 26): 26; ELISA [2, 5]: 0.1
GCDVMQPYWGCGFDMDCLAGCVCHWYNSCG [VEGF_CKP9.63.65]	27.1	2.0	–
GCDVMQPYWGCGADLSCLAGCVCHWYNSCG [VEGF_CKP9.63.62]	25.4	1.8	–
